Among the data in patent publication US20230405046A1 are minimal recognized peptide concentration (functional avidity, IFNγ ELISPOT) values, retold here.

B1: TCRCD8-EL8-LM7 #1 (TCR)
TCR alpha: AQKITQTQPGMFVQEKEAVTLDCTYDTSDPSYGLFWYKQPSSGEMIFLIYQGSYDQQNATEGRYSLNFQKARKSANLVISASQLGDSAMYFCAMREGQDSSYKLIFGSGTRLLVRPDIQNPDPAVYQLRDS
TCR beta: MGTRLLCCVAFCLLGAGPVDSGVTQTPKHLITATGQRVTLRCSPRSGDLSVYWYQQSLDQGLQFLIQYYNGEERAKGNILERFSAQQFPDLHSELNLSSLELGDSALYFCASSVLGPNTEAFFGQGTRLTVVEDLNKVFPPEVAVFE
B2: TCRCD8-EL8-LM7 #8 (TCR)
TCR alpha: AQKITQTQPGMFVQEKEAVTLDCTYDTSDPSYGLFWYKQPSSGEMIFLIYQGSYDQQNATEGRYSLNFQKARKSANLVISASQLGDSAMYFCAMREIRDSSYKLIFGSGTRLLVRPDIQNPDPAVYQLRDS
TCR beta: MGTRLLCCVAFCLLGAGPVDSGVTQTPKHLITATGQRVTLRCSPRSGDLSVYWYQQSLDQGLQFLIQHYNGEERAKGNILERFSAQQFPDLHSELNLSSLELGDSALYFCASSPAGPNTEAFFGQGTRLTVVEDLNKVFPPEVAVFE
B3: TCRCD8-EL8-LM7 #4 (TCR)
TCR alpha: AQKVTQAQTEISVVEKEDVTLDCVYETRDTTYYLFWYKQPPSGELVFLIRRNSFDEQNEISGRYSWNFQKSTSSFNFTITASQVVDSAVYFCALSNAGGTSYGKLTFGQGTILTVHPNIQNPDPAVYQLRDS
TCR beta: EAQVTQNPRYLITVTGKKLTVTCSQNMNHEYMSWYRQDPGLGLRQIYYSMNVEVTDKGDVPEGYKVSRKEKRNFPLILESPSPNQTSLYFCASSRRLPPPYGYTFGSGTRLTVVEDLNKVFPPEVAVFE
B4: TCRCD8-EL8-LM7 #7 (TCR)
TCR alpha: AQKVTQAQTEISVVEKEDVTLDCVYETRDTTYYLFWYKQPPSGELVFLIRRNSFDEQNEISGRYSWNFQKSTSSFNFTITASQVVDSAVYFCALSESSNTGKLIFGQGTTLQVKPDIQNPDPAVYQLRDS
TCR beta: EAQVTQNPRYLITVTGKKLTVTCSQNMNHEYMSWYRQDPGLGLRQIYYSMNVEVTDKGDVPEGYKVSRKEKRNFPLILESPSPNQTSLYFCASSRREPPPYGYTFGSGTRLTVVEDLNKVFPPEVAVFE

The target in this assay is HLA-A*01:01 presenting KRAS-Q61H 55-64 (…) (human). Briefly: cell-based or functional assay.
B1 showed a minimal recognized peptide concentration (functional avidity, IFNγ ELISPOT) of 10 nM. Then B2, with 100 nM; and B3, with 10 nM.

B4 registered a minimal recognized peptide concentration (functional avidity, IFNγ ELISPOT) of 10 nM.
